Test results: patent US20200239586A1
Values belong to the binder of their own block, whether it stands above or below them.

How the values were obtained:
[1] = molecular target: T1, Histidine tagged hFn14 extracellular domain, bacterially expressed (human) (UniProt Q9NP84); experiment: SPR (ProteOn XPR36), mAb coupled to chip, His-tagged hFn14 analyte, Langmuir 1:1 fit
T1 sequence: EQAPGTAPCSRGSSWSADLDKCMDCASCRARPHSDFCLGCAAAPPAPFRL

[2] = molecular target: synthetic peptide hFn14 sub-domain 2 (human); experiment: ELISA on biotinylated sub-domain 2 peptide, mAb at 5 ng/ml
human Fn14 (human) = molecular target: T2, human Fn14 (human) (UniProt Q9NP84); experiment: cell-based or functional assay
T2 sequence: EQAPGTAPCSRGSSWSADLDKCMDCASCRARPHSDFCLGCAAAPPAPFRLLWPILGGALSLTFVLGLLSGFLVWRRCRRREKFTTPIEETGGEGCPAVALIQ

[3] = molecular target: T3, synthetic peptide hFn14 sub-domain 3 (human); experiment: ELISA on biotinylated sub-domain 3 peptide, mAb at 0.2 ug/ml
T3 sequence (peptide, biotin on the added C-terminal lysine): ASCRARPHSDFCLGK

Sequence of synthetic peptide hFn14 sub-domain 2 (human) (peptide, as listed by the source): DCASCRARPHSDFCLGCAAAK

- Kd [1]: 4.1 nM
- koff [1]: 0.00147 s⁻¹
- kon [1]: 358000 M⁻¹ s⁻¹
- % decrease in binding compared to CRCBT-06-001 and CRCBT-06-002 [2]: 68%
- % Agonist, IL-8 secretion by A375 cells (human Fn14 (human)): 21%
- % Antagonist, IL-8 secretion by A375 cells (human Fn14 (human)): 9%
- % decrease in binding compared with CRCBT-06-005 [3]: 76%
B1: ITEM-1 (antibody, from another filing, V domains shown)
VH: EVKLEESGGGLVQPGGSMKLSCVASGFSFSNYWMNWVRQSPEKGLEWVAEIRLKSNNYATHYAESVKGRFTISRHDSKSSVYLQMNNLRAEDTGIYYCTRAYADYFDYWGQGTTLTVSS
VL: DIVLTQSPASLVVSLGQRATISCRASQSVSTSTYSYMHWYQQKPGQPPKILIKYASNLESGVPARFSGSGSGTDFTLNIHPVEEEDTATYYCQHSWEIPYTFGGGTKLEIKR

- Kd [1]: 1.68 nM
- koff [1]: 0.000864 s⁻¹
- kon [1]: 510000 M⁻¹ s⁻¹
- % Agonist, IL-8 secretion by A375 cells (human Fn14 (human)): 8%
- % Antagonist, IL-8 secretion by A375 cells (human Fn14 (human)): 97%
B2: ITEM-4 (antibody, from another filing, V domains shown)
VH: QVQLQQSGPELVKPGASVKMSCKASGYTFTDFIIAWVKQRTGQGLEWIGEIYPGTGRTYYSEKFRGKATLTADKSSNTAYMQLSSLTSVDSAVYFCARRTIYYDYDGDYWGQGTTLTVSS
VL: DIVMTQAAFSNPVTLGTSASISCRSSKSLLHSNGITYLYWYLQKPGQSPQLLIYQMSNLASGVPDRFSSSGSGTDFTLRISRVEAEDVGVYYCAHNLELPWTFGGGTKLELK
